The target of the experiment is plasma purified human complement protein C3 (human) (UniProt P01024). Description: cell-based or functional assay.

Where a chain is given by its changes, count along the chain named. Names and notes keep the numbering of the source.

Chain of plasma purified human complement protein C3 (human) (P01024 23-667, chain 1 of 2): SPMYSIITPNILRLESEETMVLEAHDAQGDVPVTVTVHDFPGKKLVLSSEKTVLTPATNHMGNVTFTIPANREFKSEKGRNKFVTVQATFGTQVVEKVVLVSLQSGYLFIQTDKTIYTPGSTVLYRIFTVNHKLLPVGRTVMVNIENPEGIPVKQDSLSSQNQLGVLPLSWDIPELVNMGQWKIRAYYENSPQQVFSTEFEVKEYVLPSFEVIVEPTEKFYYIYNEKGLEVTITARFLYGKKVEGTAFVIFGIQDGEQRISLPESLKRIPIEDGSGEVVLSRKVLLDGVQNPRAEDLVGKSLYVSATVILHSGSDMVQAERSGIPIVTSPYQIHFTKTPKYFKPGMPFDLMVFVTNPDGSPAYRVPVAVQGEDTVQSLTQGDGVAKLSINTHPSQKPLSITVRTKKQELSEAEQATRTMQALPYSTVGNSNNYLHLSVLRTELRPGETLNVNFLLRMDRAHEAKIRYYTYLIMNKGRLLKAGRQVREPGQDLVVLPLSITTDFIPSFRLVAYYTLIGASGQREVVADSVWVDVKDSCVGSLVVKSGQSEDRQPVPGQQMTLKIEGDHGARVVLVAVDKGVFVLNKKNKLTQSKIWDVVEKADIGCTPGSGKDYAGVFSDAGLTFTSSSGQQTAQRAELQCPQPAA
Chain of plasma purified human complement protein C3 (human) (P01024 672-1663, chain 2 of 2): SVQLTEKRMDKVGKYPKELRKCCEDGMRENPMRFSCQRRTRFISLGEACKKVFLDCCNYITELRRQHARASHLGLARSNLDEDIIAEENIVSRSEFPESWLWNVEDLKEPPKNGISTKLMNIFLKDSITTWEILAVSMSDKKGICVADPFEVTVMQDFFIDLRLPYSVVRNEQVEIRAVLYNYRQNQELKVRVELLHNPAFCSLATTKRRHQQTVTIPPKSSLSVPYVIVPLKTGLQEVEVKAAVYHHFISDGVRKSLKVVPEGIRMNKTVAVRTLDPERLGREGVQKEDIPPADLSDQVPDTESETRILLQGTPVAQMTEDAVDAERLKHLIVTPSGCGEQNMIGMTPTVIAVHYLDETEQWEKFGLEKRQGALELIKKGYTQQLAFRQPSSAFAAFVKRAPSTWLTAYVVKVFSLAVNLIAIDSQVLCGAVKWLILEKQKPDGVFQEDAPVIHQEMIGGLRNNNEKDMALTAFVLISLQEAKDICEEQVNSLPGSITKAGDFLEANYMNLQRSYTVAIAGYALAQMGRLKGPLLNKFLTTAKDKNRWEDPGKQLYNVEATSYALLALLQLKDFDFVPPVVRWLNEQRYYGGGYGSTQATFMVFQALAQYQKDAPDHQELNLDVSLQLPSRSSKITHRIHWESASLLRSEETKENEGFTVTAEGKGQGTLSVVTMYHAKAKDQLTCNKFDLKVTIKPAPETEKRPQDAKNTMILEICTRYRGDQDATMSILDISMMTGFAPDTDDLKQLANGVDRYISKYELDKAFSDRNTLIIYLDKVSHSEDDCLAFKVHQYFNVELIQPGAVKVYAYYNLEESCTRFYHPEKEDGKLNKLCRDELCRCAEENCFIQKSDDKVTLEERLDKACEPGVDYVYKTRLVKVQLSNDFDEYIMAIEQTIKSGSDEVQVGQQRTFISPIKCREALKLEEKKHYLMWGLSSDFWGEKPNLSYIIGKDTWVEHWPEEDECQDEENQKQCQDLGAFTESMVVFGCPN

B1: MTSP-1 I41S/D60bT/F60eS/Y60gW/D96K/F97G/ins97aV/T98P/F99L/C122S/G151H/Q175L/Q192D (enzyme)
chain: VVGGTDADEGEWPWQVSLHALGQGHSCGASLISPNWLVSAAHCYIDTRGSRWSDPTQWTAFLGLHDQSQRSAPGVQERRLKRIISHPFFNKGVPLDYDIALLELEKPAEYSSMVRPISLPDASHVFPAGKAIWVTGWGHTQYGGTHALILQKGEIRVINQTTCENLLPQLITPRMMCVGFLSGGVDSCDGDSGGPLSSVEADGRIFQAGVVSWGDGCAQRNKPGVYTRLPLFRDWIKENTGV
As for B1, the EC50 of hC3 cleavage was determined as 17.1 nM.

B2: MTSP-1 Q38H/D60bT/F60eS/Y60gW/D96K/F97G/ins97aV/T98P/F99L/C122S/G151H/Q175L/Q192D (enzyme)
chain: B1 chain with Q23H, S26I
Consider B2, for which the EC50 of hC3 cleavage was 215 nM.

B3: MTSP-1 protease domain Q38K/I41D/Y60gG/F99L/C122S/G151N (enzyme)
chain: VVGGTDADEGEWPWQVSLHALGKGHDCGASLISPNWLVSAAHCYIDDRGFRGSDPTQWTAFLGLHDQSQRSAPGVQERRLKRIISHPFFNDFTLDYDIALLELEKPAEYSSMVRPISLPDASHVFPAGKAIWVTGWGHTQYGGTNALILQKGEIRVINQTTCENLLPQQITPRMMCVGFLSGGVDSCQGDSGGPLSSVEADGRIFQAGVVSWGDGCAQRNKPGVYTRLPLFRDWIKENTGV
Turning to B3, the EC50 hC3 cleavage was 52.7 nM.

B4: MTSP-1 protease domain Q38R/I41R/Y60gF/F99L/C122S/G151N/Q192G (enzyme)
chain: B3 chain with K23R, D26R, G52F, Q188G
The molecule B4 came in with an EC50 hC3 cleavage of 197 nM.

B5: MTSP-1 protease domain Q38R/I41R/F99L/C122S/G151N/Q192G (enzyme)
chain: B3 chain with K23R, D26R, G52Y, Q188G
Regarding B5, the EC50 hC3 cleavage amounted to 248 nM.

B6: MTSP-1 protease domain I41D/F60eI/D96E/F99L/C122S/G151N/Q192T (enzyme)
chain: B3 chain with K23Q, F50I, G52Y, D91E, Q188T
B6 had an EC50 hC3 cleavage of 47.9 nM.

B7: MTSP-1 protease domain Q38K/I41S/Y60gW/F99L/C122S/G151N/Q192G (enzyme)
chain: B3 chain with D26S, G52W, Q188G
As for B7, the EC50 hC3 cleavage is 35.1 nM.

B8: MTSP-1 protease domain I41E/F99L/C122S/G151N/Q175L/Q192A (enzyme)
chain: B3 chain with K23Q, D26E, G52Y, Q169L, Q188A
Regarding B8, the EC50 hC3 cleavage came to 28.5 nM.

B9: MTSP-1 protease domain Q38F/I41S/Y60gA/C122S/G151N/Q192R (enzyme)
chain: B3 chain with K23F, D26S, G52A, L94F, Q188R
B9 registered an EC50 hC3 cleavage of 33.1 nM.

B10: MTSP-1 protease domain I41E/F99L/C122S/G151N/Q175R/Q192T (enzyme)
chain: B3 chain with K23Q, D26E, G52Y, Q169R, Q188T
Regarding B10, the EC50 hC3 cleavage was 155 nM.

B11: MTSP-1 protease domain I41S/F99M/C122S/G151N/Q175G/Q192R (enzyme)
chain: B3 chain with K23Q, D26S, G52Y, L94M, Q169G, Q188R
As for B11, the EC50 hC3 cleavage is 95.3 nM.

B12: MTSP-1 protease domain I41D/G43A/F99L/C122S/G151N/Q192T/P232S/K239R (enzyme)
chain: B3 chain with K23Q, G28A, G52Y, Q188T, P229S, K236R
Regarding B12, the EC50 hC3 cleavage was 37.6 nM.

B13: MTSP-1 protease domain Q38K/I41G/Y60gW/F99L/C122S/G151N/Q192A (enzyme)
chain: B3 chain with D26G, G52W, Q188A
B13 registered an EC50 hC3 cleavage of 9.96 nM.

B14: MTSP-1 I41D/Y59F/C122S/G151N/Q192T (enzyme)
chain: B3 chain with K23Q, Y44F, G52Y, L94F, Q188T
B14 registered an EC50 of hC3 cleavage of 56.7 nM.

B15: MTSP-1 protease domain I41D/Y59F/F99L/C122S/G151N/Q192T/V213A (enzyme)
chain: B3 chain with K23Q, Y44F, G52Y, Q188T, V210A
For B15, the EC50 hC3 cleavage is 414 nM.

B16: MTSP-1 protease domain I41D/D96E/C122S/G151N/Q192T (enzyme)
chain: B3 chain with K23Q, G52Y, D91E, L94F, Q188T
Regarding B16, the EC50 hC3 cleavage amounted to 78.8 nM.

B17: MTSP-1 protease domain I41G/F99L/C122S/G151N/Q192A (enzyme)
chain: B3 chain with K23Q, D26G, G52Y, Q188A
The molecule B17 returned an EC50 hC3 cleavage of 61 nM.

B18: MTSP-1 protease domain I41D/F99L/M117T/C122S/G151N/Q192T/A204D/D217E (enzyme)
chain: B3 chain with K23Q, G52Y, M112T, Q188T, A200D, D214E
For the molecule B18, the EC50 hC3 cleavage worked out at 25.3 nM.

B19: MTSP-1 protease domain I41D/F99L/C122S/I136M/G151N/Q192T/D217L/K224R (enzyme)
chain: B3 chain with K23Q, G52Y, I131M, Q188T, D214L, K221R
For B19, the EC50 hC3 cleavage is 32.2 nM.

B20: MTSP-1 protease domain I41S/F99L/C122S/G151N/Q175P/Q192V (enzyme)
chain: B3 chain with K23Q, D26S, G52Y, Q169P, Q188V
With B20, the EC50 hC3 cleavage is 35.8 nM.

B21: MTSP-1 protease domain I41E/F99L/C122S/G151N/Q192V (enzyme)
chain: B3 chain with K23Q, D26E, G52Y, Q188V
The molecule B21 yielded an EC50 hC3 cleavage of 156 nM.

B22: MTSP-1 protease domain I41D/D96E/F99L/C122S/G151N/Q192T (enzyme)
chain: B3 chain with K23Q, G52Y, D91E, Q188T
For the molecule B22, the EC50 hC3 cleavage is 51.5 nM.

B23: MTSP-1 protease domain I41E/F99L/C122S/Q175G/Q192T (enzyme)
chain: B3 chain with K23Q, D26E, G52Y, N145G, Q169G, Q188T
For B23, the EC50 hC3 cleavage came to 33.9 nM.

B24: MTSP-1 protease domain I41S/F99M/C122S/G151N/Q175P/Q192S (enzyme)
chain: B3 chain with K23Q, D26S, G52Y, L94M, Q169P, Q188S
Molecule B24 had an EC50 hC3 cleavage of 139 nM.

B25: MTSP-1 protease domain I41S/F99M/C122S/G151N/Q175L/Q192G (enzyme)
chain: B3 chain with K23Q, D26S, G52Y, L94M, Q169L, Q188G
B25 registered an EC50 hC3 cleavage of 62 nM.

B26: MTSP-1 protease domain Q38K/I41R/Y60gG/F99L/C122S/G151N/Q192G (enzyme)
chain: B3 chain with D26R, Q188G
Regarding B26, the EC50 hC3 cleavage came to 335 nM.

B27: MTSP-1 protease domain I41G/F99L/C122S/G151N/Q175R/Q192A (enzyme)
chain: B3 chain with K23Q, D26G, G52Y, Q169R, Q188A
B27 showed an EC50 hC3 cleavage of 74.5 nM.

B28: MTSP-1 protease domain I41S/F99L/C122S/Q175P/Q192V (enzyme)
chain: B3 chain with K23Q, D26S, G52Y, N145G, Q169P, Q188V
B28: the EC50 hC3 cleavage came to 64.3 nM.

B29: MTSP-1 protease domain I41E/F99L/C122S/G151N/Q175G/Q192T (enzyme)
chain: B3 chain with K23Q, D26E, G52Y, Q169G, Q188T
Turning to B29, the EC50 hC3 cleavage was 30.2 nM.

B30: MTSP-1 protease domain I41S/C122S/G151N/Q175D/Q192R (enzyme)
chain: B3 chain with K23Q, D26S, G52Y, L94F, Q169D, Q188R
Molecule B30 returned an EC50 hC3 cleavage of 96.8 nM.

B31: MTSP-1 protease domain I41S/C122S/G151N/Q175R/Q192R (enzyme)
chain: B3 chain with K23Q, D26S, G52Y, L94F, Q169R, Q188R
For the molecule B31, the EC50 hC3 cleavage stood at 134 nM.

B32: MTSP-1 protease domain I41D/F99L/C122S/G151N (enzyme)
chain: B3 chain with K23Q, G52Y
B32 gave an EC50 hC3 cleavage of 16.9 nM.

B33: MTSP-1 protease domain I41E/C122S/G151N/Q175L/Q192A (enzyme)
chain: B3 chain with K23Q, D26E, G52Y, L94F, Q169L, Q188A
B33 displayed an EC50 hC3 cleavage of 45 nM.

B34: MTSP-1 protease domain Q38R/I41R/Y60gL/F99L/C122S/G151N/Q192G (enzyme)
chain: B3 chain with K23R, D26R, G52L, Q188G
B34: the EC50 hC3 cleavage amounted to 388 nM.

B35: MTSP-1 protease domain Q38S/I41S/Y60gW/F99L/C122S/G151D/Q192T (enzyme)
chain: B3 chain with K23S, D26S, G52W, N145D, Q188T
With B35, the EC50 hC3 cleavage came to 15 nM.

B36: MTSP-1 protease domain I41S/F99L/C122S/G151H/Q175L/Q192V (enzyme)
chain: B3 chain with K23Q, D26S, G52Y, N145H, Q169L, Q188V
The molecule B36 yielded an EC50 hC3 cleavage of 20.9 nM.

B37: MTSP-1 protease domain Q38R/I41S/Y60gW/F99L/C122S/G151N/Q192E (enzyme)
chain: B3 chain with K23R, D26S, G52W, Q188E
B37 yielded an EC50 hC3 cleavage of 116 nM.

B38: MTSP-1 protease domain I41S/F99M/C122S/G151N/Q175E/Q192R (enzyme)
chain: B3 chain with K23Q, D26S, G52Y, L94M, Q169E, Q188R
Consider B38, for which the EC50 hC3 cleavage worked out at 297 nM.

B39: MTSP-1 protease domain I41E/F99L/C122S/G151N/Q175G (enzyme)
chain: B3 chain with K23Q, D26E, G52Y, Q169G
The molecule B39 returned an EC50 hC3 cleavage of 20 nM.

B40: MTSP-1 I41D/Y59F/D96E/F99L/C122S/G151N/Q192T (enzyme)
chain: B3 chain with K23Q, Y44F, G52Y, D91E, Q188T
Molecule B40 showed an EC50 of hC3 cleavage of 54.9 nM.

B41: MTSP-1 protease domain I41D/D96E/F99L/C122S/G151N/Q192T/D217E (enzyme)
chain: B3 chain with K23Q, G52Y, D91E, Q188T, D214E
For B41, the EC50 hC3 cleavage stood at 27.6 nM.

B42: MTSP-1 protease domain F99L/C122S/G151N/Q192T (enzyme)
chain: B3 chain with K23Q, D26I, G52Y, Q188T
Molecule B42 registered an EC50 hC3 cleavage of 225 nM.

B43: MTSP-1 protease domain I41D/G43A/D96E/F99L/C122S/G151N/Q192T (enzyme)
chain: B3 chain with K23Q, G28A, G52Y, D91E, Q188T
Turning to B43, the EC50 hC3 cleavage turned out to be 45 nM.

B44: MTSP-1 protease domain I41D/F99L/C122S/G151N/Q192T/D217E (enzyme)
chain: B3 chain with K23Q, G52Y, Q188T, D214E
With B44, the EC50 hC3 cleavage was 22 nM.

B45: MTSP-1 protease domain I41E/F99L/C122S/G151N/Q175R/Q192H (enzyme)
chain: B3 chain with K23Q, D26E, G52Y, Q169R, Q188H
As for B45, the EC50 hC3 cleavage is 102 nM.

B46: MTSP-1 protease domain Q38H/I41S/Y60gW/C122S/G151H/Q192A (enzyme)
chain: B3 chain with K23H, D26S, G52W, L94F, N145H, Q188A
Turning to B46, the EC50 hC3 cleavage was found to be 8.96 nM.

B47: MTSP-1 protease domain I41E/F99L/C122S/G151N/Q192S (enzyme)
chain: B3 chain with K23Q, D26E, G52Y, Q188S
Molecule B47 registered an EC50 hC3 cleavage of 112 nM.

B48: MTSP-1 protease domain I41S/F99L/C122S/G151N/Q175P (enzyme)
chain: B3 chain with K23Q, D26S, G52Y, Q169P
Turning to B48, the EC50 hC3 cleavage amounted to 13.9 nM.

The values are drawn from patent US20240018502A1.
